Data set [1] addresses T1, GEF-H1 peptide, amino acids 807-824 (unphosphorylated).
T1 chain: RRRSLPAGDALYLSFNPP

Data set [2] has as its target GST (Glutathione-S-transferase) [GST: P08515].
Data set [3] deals with T2, GEF-H1 peptide 807-824 with phospho-serine at position 810.
T2 chain: RRRSLPAGDALYLSFNPP

For the next data set, the target named is T3, GST-GEF-H1S (aa763-921).
T3 chain: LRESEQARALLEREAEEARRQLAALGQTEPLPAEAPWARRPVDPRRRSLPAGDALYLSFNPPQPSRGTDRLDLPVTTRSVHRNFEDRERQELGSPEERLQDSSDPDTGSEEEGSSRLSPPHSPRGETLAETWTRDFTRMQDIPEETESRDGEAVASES

Data set [4] deals with T4, GEF-H1 peptide, amino acids 55-72.
T4 chain: RQSLLGSRRGRSSLSLAK

Data set [5] addresses GST-Maguin-2-like fusion protein (amino acids 385-555) [GST: P08515].

Chain of GST (Glutathione-S-transferase) [GST: P08515] (P08515 whole entry): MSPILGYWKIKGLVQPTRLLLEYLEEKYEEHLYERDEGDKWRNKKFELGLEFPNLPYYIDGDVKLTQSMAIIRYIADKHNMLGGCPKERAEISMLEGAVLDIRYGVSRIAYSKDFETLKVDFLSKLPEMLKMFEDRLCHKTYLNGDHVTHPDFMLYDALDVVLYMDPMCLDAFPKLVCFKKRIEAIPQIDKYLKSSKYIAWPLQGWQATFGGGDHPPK
Chain of GST-Maguin-2-like fusion protein (amino acids 385-555) [GST: P08515] (P08515 whole entry, looked up, the tested form may be a part): as the sequence (P08515 whole entry) above

B1: Glutathione-s-transferase (GST) fused PAK4 (residues 291-591) (protein)
chain: SPQREPQRVSHEQFRAALQLVVDPGDPRSYLDNFIKIGEGSTGIVCIATVRSSGKLVAVKKMDLRKQQRRELLFNEVVIMRDYQHENVVEMYNSYLVGDELWVVMEFLEGGALTDIVTHTRMNEEQIAAVCLAVLQALSVLHAQGVIHRDIKSDSILLTHDGRVKLSDFGFCAQVSKEVPRRKSLVGTPYWMAPELISRLPYGPEVDIWSLGIMVIEMVDGEPPYFNEPPLKAMKMIRDNLPPRLKNLHKVSPSLKGFLDRLLVRDPAQRATAAELLKHPFLAKAGPPASIVPLMRQNRTR
As for B1, the “Km (in vitro kinase assay)” value in data set [1] was “also a high affinity substrate for PAK4 with a similar Km for PAK4 as the GST-GEF-H1 (793-921) fusion protein”; with GST-GEF-H1S (aa763-921), “Km is the 1 to 5 uM range”. Moreover, the “phosphorylation in in vitro kinase assays” value in data set [1] and in data set [4] was “are phosphorylated by PAK4” in each case. In addition, the “phosphorylation in an in vitro kinase assay” value is listed as “PAK4 fails to phosphorylate the GST control” in data set [2], “Peptides with phospho-serine at position 810 were no longer substrates for PAK4” in data set [3] and “weakly phosphorylated the GST-Maguin-2-like fusion protein” in data set [5]. Also, the “phosphorylation in an in vitro kinase reaction (SDS-PAGE, autoradiograph)” value in data set [2] is listed as “no phosphorylation of the fusion partner GST”; with GST-GEF-H1S (aa763-921), “The autoradiograph showed phosphorylation of the GEF-H1S polypeptide”.

These data come from patent US20040091907.
